# Reference: patent US12016935B2, “Methods for detecting CCR2 receptors” (Washington University, priority 2016, dated 2024)
# Where no end group is shown, it is not given here. [ ]: non-standard residue; d: D form.
# Legend:
# [1] = Toxicity study in mice (serum chemistries, histology); type: in vivo, mouse; conditions: i.v. 110 μg, 500-fold the estimated human imaging dose; evaluated 24 h later
# Method: Toxicity studies were performed by S. Greco, DVM (Dept. of Comparative Med., Washington Univ.).
# CCR2 [2] = target: T1, CCR2 (Mus musculus, UniProt P51683)
# Method: Instead of a dynamic scan, a static scan was performed at 1, 4 and 24 hours after injection. The PET images were reconstructed with the maximum a posteriori algorithm and analyzed by Inveon Research Workplace. The organ uptake was calculated as percent injected dose per gram (% ID/g) of tissue in three-dimensional regions of interest without the correction for partial volume effect (14).
# CCR2 [3] = target: T2, CCR2 (Homo sapiens, UniProt P41597); assay: Autoradiography on human lung tissue sections; type: binding; set-up: Fixed human lung tissue sections; from tissue; host or cells: human lung (COPD explants and donor lungs), fixed paraffin sections; conditions: lung tissue from subjects with COPD
# Method: Fixed human lung tissue sections that were deparaffinized and hydrated in PBS were incubated with ^64Cu-DOTA-ECL1i for 5 min (n=4 donor, n=6 COPD). […] Slides were washed 30 times with water then placed in an instant imager (Packard, Meriden, CT) for 30 minutes.
# Target sequence in this assay (P41597 whole entry): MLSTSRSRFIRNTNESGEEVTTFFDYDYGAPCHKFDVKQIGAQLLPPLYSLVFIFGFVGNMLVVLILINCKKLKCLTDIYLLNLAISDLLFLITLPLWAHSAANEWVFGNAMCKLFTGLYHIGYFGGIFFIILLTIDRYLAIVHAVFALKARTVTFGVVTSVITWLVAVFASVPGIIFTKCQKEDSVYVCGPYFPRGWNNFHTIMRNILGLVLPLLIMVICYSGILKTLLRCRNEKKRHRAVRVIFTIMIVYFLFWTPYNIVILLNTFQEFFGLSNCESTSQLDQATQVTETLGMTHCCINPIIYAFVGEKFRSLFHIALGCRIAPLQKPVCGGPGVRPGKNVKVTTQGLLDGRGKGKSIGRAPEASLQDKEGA
# [4] = mouse, in vivo
# Method: C57BL/6 mice were used for the biodistribution studies. About 10 μCi of ^64Cu-DOTA-ECL1i in 100 μL saline (APP pharmaceuticals, Schaumburg, IL) were injected via the tail vein. The mice were anesthetized with inhaled isoflurane and re-anesthetized before euthanasia by cervical dislocation at each time point (1 hour after injection, n=4/group). Organs of interest were collected, weighed and counted in a Beckman 8000 gamma counter (Beckman, Fullterton, CA).
# [5] = mouse, in vivo; remark: listed apart in the source
# Method: After euthanasia, 1 h post-radiotracer injection, organs of interest were collected, weighed and assayed by gamma counter (Beckman, Brea, CA) as described (23). Standards were prepared and measured in parallel to calculate the percentage of the injected dose per gram of tissue (% ID/g).
# human CCR2 (hCCR2) = target: T3, human CCR2 (hCCR2) (Homo sapiens, UniProt P41597); assay: CCL2-induced chemotaxis in CHO cells that stably express human CCR2; type: cell-based
# T3 construct: expressed in transfected cells; host or cells: CHO
# Text: (§1) CCR2^+ cells migrate in response to CCL2.
# CCR2 [6] = target: T2, CCR2; assay: Binding of fluorescently-labeled CCL1 to CCR2-expressing HEK293 cells; set-up: expressed in transfected cells; host or cells: HEK293
# Text: as §1
# Target sequence in this assay (P41597 whole entry, species assumed): as the sequence (P41597 whole entry) above
# human CX3CR1 = target: T4, human CX3CR1 (Homo sapiens, UniProt P49238); assay: Migration of cells expressing human CX3CR1; type: cell-based
# T4 construct: expressed in transfected cells
# T4 sequence (P49238 1-355): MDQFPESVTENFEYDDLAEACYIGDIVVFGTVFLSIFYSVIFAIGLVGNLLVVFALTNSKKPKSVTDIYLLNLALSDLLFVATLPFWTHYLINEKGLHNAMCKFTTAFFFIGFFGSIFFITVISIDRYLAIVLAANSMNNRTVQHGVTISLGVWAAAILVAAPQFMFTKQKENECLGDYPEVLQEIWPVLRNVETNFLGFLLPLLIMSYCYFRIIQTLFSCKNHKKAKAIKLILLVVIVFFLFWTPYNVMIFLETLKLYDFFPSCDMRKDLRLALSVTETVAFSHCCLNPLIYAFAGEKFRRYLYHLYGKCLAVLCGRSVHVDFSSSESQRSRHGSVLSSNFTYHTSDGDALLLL
# [7] = system: CD45^+ immune cells in COPD lung; assay: Flow cytometry of cells digested from human COPD lung; type: cell-based
# Method: There were three CCR2 phenotypes (high, intermediate, normal), with implications for future therapies. […] Our tissue bank also includes cells digested from lung for flow cytometry studies. […] We obtain approximately 6-8 explanted lungs per year from COPD subjects. We propose to also examine lung tissue incubated with ECL1i-647 and cells specific antibodies using two-photon microscopy to localize ECL1i.
# human CCR1 = target: T5, human CCR1 (Homo sapiens, UniProt P32246); assay: Migration of cells expressing human CCR1; type: cell-based
# T5 construct: expressed in transfected cells
# T5 sequence (P32246 1-355): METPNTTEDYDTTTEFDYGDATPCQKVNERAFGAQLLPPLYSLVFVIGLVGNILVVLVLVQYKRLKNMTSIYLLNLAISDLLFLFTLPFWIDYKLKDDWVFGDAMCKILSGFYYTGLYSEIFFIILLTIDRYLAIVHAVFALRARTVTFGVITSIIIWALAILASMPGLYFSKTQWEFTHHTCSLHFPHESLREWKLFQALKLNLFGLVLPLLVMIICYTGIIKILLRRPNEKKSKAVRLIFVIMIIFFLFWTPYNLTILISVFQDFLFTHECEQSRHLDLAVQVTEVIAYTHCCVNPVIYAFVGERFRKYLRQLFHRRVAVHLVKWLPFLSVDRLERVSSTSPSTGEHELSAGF
# human CCR5 = target: T6, human CCR5 (Homo sapiens, UniProt P51681); assay: Migration of cells expressing human CCR5; type: cell-based
# T6 construct: expressed in transfected cells
# [8] = system: CCR2^+ inflammatory monocytes; assay: CCL2-mediated chemotaxis of monocytes; type: cell-based
# Text: as §1
# CCR2 [9] = target: T2, CCR2; set-up: expressed in transfected cells; host or cells: HEK293; conditions: compared to CCL2 ligand in vitro; cited from earlier work
# Target sequence in this assay (P41597 whole entry, species assumed): as the sequence (P41597 whole entry) above
# CCR2 [10] = target: T1, CCR2; assay: PET/CT imaging in LPS mouse lung injury model; type: in vivo; set-up: tissue The Jackson Laboratories; host or cells: C57BL/6 mice, lung and aortic arch in vivo (CCR2+ monocytes/macrophages); conditions: PET
# Text: The Institutional Animal Care and Use Committee approved these studies. Wild type (n=77) and CCR2-deficient (CCR2^−/−, n=4) mice (C57BL6/J strain) were 8 to 12 weeks of age, of both sexes and approximately 25 g in weight. Mice were used for radiotracer stability studies (n=3) and lung injury studies that included: immunostaining for CCR2 (n=6), in vivo immune cell peptide binding (n=18), lung water weight measurements (n=6), in vivo biodistribution (n=12) and PET/CT imaging (n=36). For the lung injury studies, mice were not treated (naive, n=8), administered intratracheal vehicle control, phosphate buffered saline (PBS, 1 μL/g, n=26) or lipopolysaccharide (LPS, endotoxin, E. coli strain 055:B5, Sigma-Aldrich, St. Louis, MO), at a dose of 2.5 μg/g (n=44), “high” dose, 10 μg/g (n=3), or “low” dose, 0.5 μg/g (n=3) LPS. All CCR2-deficient mice were administered an LPS dose of 2.5 μg/g. Lung water was quantified using wet-to-dry weight ratios in PBS- or intermediate dose LPS-treated mice (n=3/group). Lungs were resected and weighted immediately, then compared to weights obtained after drying at 65° C. for 48 h.
# Time-activity curves were calculated from the ROIs from PET images obtained in a subgroup (n=3/group) of the PBS- and LPS-treated mice undergoing imaging at 24 h. […]
# [11] = system: monocytes (Ly6G^lo, Ly6C^hi); assay: Flow cytometry of lung immune cells binding ECL1i-Dylight 550 in vivo; set-up: species or system mouse; conditions: injected i.v. 24 h post LPS; lungs analyzed one hour later
# Method: Mice (n=4 PBS, n=5 LPS) delivered intratracheal PBS or LPS, and 24 hours later were injected intravenously with ECL1i labeled with Dylight 550 (100 μg) to determine the type of inflammatory cell binding ECL1i. Other mice were treated in parallel but not given ECL1i-Dylight 550 (n=4 PBS, n=5 LPS). One h post-injection, a single cell suspension was produced from the lungs, immunostained with immune cell markers (TABLE 2) and analyzed by flow cytometry.
# Mice delivered intratracheal PBS or LPS were injected intravenously with ECL1i labeled with Dylight 550, as with the radiolabeled probe, to determine the type of inflammatory cell binding ECL1i. […] Cells were suspended in FACS buffer, counted by hemocytometer, and prepared for flow cytometry. […] Counts from 1 to 10×10^4 cells were collected for each sample on a FACSCalibur (Becton Dickinson), dual laser, flow cytometer using CellQuest Pro software (BD Biosciences), and analyzed using FlowJo software (Ashland, OR). The mean fluorescent intensity was determined by calculating the geometric mean of Dylight 550 fluorescence of the cell types identified in ECL1i-Dylight 550-injected mice and subtracting the fluorescent background of the same cell types from similarly treated mice not injected with ECL1i-Dylight 550.
# T1 sequence (P51683 whole entry): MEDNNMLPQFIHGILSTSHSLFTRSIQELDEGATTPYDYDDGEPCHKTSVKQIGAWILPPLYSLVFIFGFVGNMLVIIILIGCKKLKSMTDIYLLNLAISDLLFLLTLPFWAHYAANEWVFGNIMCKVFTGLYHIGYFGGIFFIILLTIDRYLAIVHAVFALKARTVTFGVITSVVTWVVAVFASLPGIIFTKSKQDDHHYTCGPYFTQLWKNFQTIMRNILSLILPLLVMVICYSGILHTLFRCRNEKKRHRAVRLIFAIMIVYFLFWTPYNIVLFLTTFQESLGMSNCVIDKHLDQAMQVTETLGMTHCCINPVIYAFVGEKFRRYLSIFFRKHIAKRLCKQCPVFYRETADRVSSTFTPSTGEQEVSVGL
# T3 sequence (P41597 whole entry): as the sequence (P41597 whole entry) above
# T6 sequence (P51681 whole entry): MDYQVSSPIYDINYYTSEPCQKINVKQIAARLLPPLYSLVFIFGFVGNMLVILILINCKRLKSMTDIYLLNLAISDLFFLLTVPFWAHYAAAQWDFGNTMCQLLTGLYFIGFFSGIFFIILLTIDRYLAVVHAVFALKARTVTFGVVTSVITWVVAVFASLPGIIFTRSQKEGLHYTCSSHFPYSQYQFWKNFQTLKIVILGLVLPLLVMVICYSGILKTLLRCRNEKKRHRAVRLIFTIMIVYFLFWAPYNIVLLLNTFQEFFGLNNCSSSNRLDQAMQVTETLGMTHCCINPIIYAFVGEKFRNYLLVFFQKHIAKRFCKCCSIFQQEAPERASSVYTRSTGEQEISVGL
compound,measurement,setting,value
"CC(C)C[C@@H](N)C(=O)NCC(=O)N[C@@H](C(=O)N[C@H](Cc1ccccc1)C(=O)N[C@H](CC(C)C)C(=O)N[C@H](CCCCN)C(=O)N[C@H](CSC1CC(=O)N(CCNC(=O)CN2CCN(CC(=O)O)CCN(CC(=O)O)CCN(CC(=O)O)CC2)C1=O)C(=O)O)[C@H](C)O (single isomer, unassigned) [Cu-DOTA-ECL1i]",toxicity findings,[1],"normal serum hepatic and renal chemistries, and histologic examination of lung, liver and kidneys"
"CC(C)C[C@@H](N)C(=O)NCC(=O)N[C@@H](C(=O)N[C@H](Cc1ccccc1)C(=O)N[C@H](CC(C)C)C(=O)N[C@H](CCCCN)C(=O)N[C@H](CSC1CC(=O)N(CCNC(=O)CN2CCN(CC(=O)O)CCN(CC(=O)O)CCN(CC(=O)O)CC2)C1=O)C(=O)O)[C@H](C)O (single isomer, unassigned) [^64Cu-DOTA-ECL1i, metal not drawn]",PET signal in the grafts blocked by competitive receptor blocking,"CCR2 [2]; transplantation into wild type recipients, excess ECL1i",approximately 75%
same,specificity determined by non-radioactive blockade,CCR2 [3],54.5%
same,uptake in the donor lung relative to native lung (biodistribution),[4],more than twice
same,"blood retention, LPS versus PBS treated mice",[5],no difference in blood retention
DLeu-Gly-DThr-DPhe-DLeu-DLys-DCys ([dL]G[dT][dF][dL][dK][dC]) [ECL1i],induction of migration of CHO-hCCR2 cells,human CCR2 (hCCR2); at concentrations that inhibited CCL2 signaling,did not induce the migration
same,inhibition of CCL2-induced chemotaxis,human CCR2 (hCCR2); concentration-dependent manner,specifically inhibited CCL2-induced chemotaxis
same,effect on binding of fluorescently-labeled CCL1,CCR2 [6],did not prevent the binding
same,inhibition of migration,human CX3CR1,did not inhibit the migration
same,binding to human lung cells,[7],bound a population of CD45^+ immune cells
same,inhibition of migration,human CCR1,did not inhibit the migration
same,inhibition of migration,human CCR5,did not inhibit the migration
same,inhibition of CCL2-mediated chemotaxis of monocytes,[8],"inhibited CCL2-mediated chemotaxis of CCR2^+ inflammatory monocytes, but not of resident monocytes"
same,CCR2 binding mode,CCR2 [9],selectively bind CCR2 in a non-competitive way
same,activity in lungs after intratracheal lipopolysaccharide relative to saline control group,CCR2 [10],3.5 fold
ECL1i-Dylight 550: Maleimide-modified Dylight 550 conjugated to ECL1i on the cysteine residue ([dL]G[dT][dF][dL][dK][dC](Dylight 550 maleimide)),"binding to monocytes (Ly6G^lo, Ly6C^hi) induced by LPS",[11],significant binding
"^64CuAuNCs-ECL1i: ECL1i-conjugated gold nanoclusters doped with ^64Cu; multivalent targeted nanocluster ([dL]G[dT][dF][dL][dK][dC]; also: joined via TA-PEG-Maleimide to a gold nanocluster doped with 64Cu, attachment site not given here)",share of accumulation in pulmonary grafts due to CCR2-mediated uptake,CCR2 [2]; accumulation of ^64CuAuNCs in native lungs set as background,more than 80%
same,retention in the blood relative to monovalent ^64Cu-DOTA-ECL1i,[4],six-fold higher
